Experimental data reported in a protein production outcome set (Wang et al. 2014).

Assay: label from the status in PepcDB records
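Further: failed if final PepcDB status was selected cloned or expressed and not failed if soluble or beyond.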

| Sequence | protein production |
| --- | --- |
| MSKTERDKIKVEMEIDPHLSWQEKLAVEEQEKLSPRLVYEIIRRDGVEELSRPTSTLIFSGITAGLVMSFSFVFKAVIASYLPIDAVWTDLITNIGYTIGFLIAILGHLQLFTENTITTVIPLFKPFSLDKLKAVARLWSIVILTNIFGTALSSLFFLTTDLFSPEVDHALDEIAHHVASFTAWENFLKGVLSGLLIAALVWMLPSVNNKILLIFMITYLIGLGDFTHVVVGSVEVAYLVWQGQTSLSEYFFQFLVPTTLGNIIGGTGIFTLLIYGQVNQELEE | failed |
| MGGSLRVAVLGAPGVGKTAIIRQFLFGDYPERHRPTDGPRLYRPAVLLDGAVYDLSIRDGDVAGPGSSPGGPEEWPDAKDWSLQDTDAFVLVYDICSPDSFDYVKALRQRIAETR | failed |
| ARQVTPGQVMVASTVGKLSALLAADLSDEQAQRLGLDTLLPLRESDGPTLFCFHPASGFAWQFSVLARYLSPRWSITGIQSPRPQGPMASAASLDEVCEHHLQTLLAQQPHGPYYLFGYSLGGTLAQGIAARLRQRGEAVAFLGLLDTWPPETQNWAEKEANGLDPEVLAEIDREREAFLAAQQGQASGELFSAIEGNYADAVRLLTTAHSAKFDGKATLFVAEKTRQEGMDPQVVWGPWVGELEVFSQNCAHVDIISPQAFEAIGPVVREILG | not failed |
| MRVLVIGATGHVGTYLVPRLVEAGHDVVTISRGAARPYTADRAWASVDQRQMDRVEMERKGDFGPAMRALNADIVIDMICFTLESAEQLVTALSGYVGHFLHTGTIWTHGYPVAVPTREEAPKSPFGDYGIQKAAIETYLLQQARLRGFPATIIHPGHIVGRGWAPLNPAGNFNLQVFSTLARGEALALPNFGLETVHHVHADDVAAMFMDAIANRNASLGESFHAVSEQALTLRGYAESMSRWFGRDPKLTFAPFDAWARGQAAEDAEATWEHIARSPNCSIAKARRLLGYGPRYTSLQAVQESVGWLLGQGRIKS | failed |
| VARCQVPDCEADISELKGYHKRHRVCLRCATASFVVLDGENKRYCQQCGKFHLLPDFDEGKRSCRRKLERHNNRRKRKPVDKGGVA | not failed |
| MIYWLSLASAAFIGLAALVWKMSAIARENRVLKAEFSLGRLKKELNVFFISDIHRRTVSEDIICEVKERGVQLVIIGGDLAEGGVPYTRIEENIKRLSSLGKTYFVWGNNDYEVDQERLLEIFKTYGVTPLRNASVLHDHQGQTVNICGVDDIRLELDDYPAALGGVQPGFPTVLVSHNPEIHHQIQEADGIDLILSGHTHGGQIRFGRFGLCEIGGTGTVFKAPYLISNGYGTSKLPLRLGARPETHLINLVPGPRMEGN | failed |
| MKNRAWLYVILTCIFEIFWVFGFNTANTWWHWIIILGVIAVDFHFLSKACEHLATGTVYAVFAGAGTVGTFLMDVFLFGGSFSVGKLFFIVMVVAGVIGLKLADNKEETVEGAA | failed |
| MPDVDKIIQFKREILDNLSNERLSKESFGLSMDVKLPEPGESIVPWIGEDLALDETDDELDLNFMLDALENEDKLSYSDIFNDNLPLSGSNLRVDVDSELSTLNNDFDVSSSDSFENNIDKVLDDNSIDLEIASKLDFDNLINSPELSSEELINNQGNNNFFEANNDSSVLGDSNFLQSNEFNIDDAVNGKNQTDEQSEMFVGDSLNLSADEDDFENVIDDFKFLEYDQNANFKRFEFKVNYPLFLKHLNSYPRNLRIAIAEALTKENVSRFKLEALIDLVEKNKKRLKFIAKFVGDIVGRSIKLPVIYFKAEEFSKLQQKLSYRVSRALLPLIKIASFFVVLVLVSLYLIVDVIFFYVASESKYKEGIESIYANKRDLAKSIFRDAYYIRPDDKWFINYAKAFEDVRDFDSAEEKYEELFTIEPFSKNSTNRRRKKFNKEGYISYASMKIGLGEHSEANSILDEVISYDLYDYDALVLKGDNYFKWAKTNSNYYKDSINSYTVVLSKYGQKKEILFKLFNAYIEANLDTESDNVNNFIKSNEILDIDEVVYTKYAKKLVDKYISFVTYNQRANNLAINLNYLNGQTNLLNKEFSDFKRNDGRTIFKLDNNVNMNSEIEYILRKILNKNPNYDKALFESGRYSYYIGDFKKAEVYLLKALNSFRHKNSIEDAGDKILAYKILADIYEKTRDSLRASNIIGLALSDYSFYKKHNLIKGSKEISSIYEKQGDILRSLNDFKSAISSYKLAINEGVDYPDVYYKVGLLSYRENNYDDALKYLFKVESMAGFSSSNEVLNTIALTLYKIGDFLASRSYYLRVMQNLELEKANVLNFNPKENDYHKTLLLKEIETYNNLGVVEVMASFSSIRDTKLFNSGVSNLSESAKIFDILNRDEDMVKSVKKDLASLNLRNIFKNSFSKSNVLFYENLSEKL | failed |
| QIKIRKATKEDWEKIYQLYNSLSDEDLYLRFFHLYRITEEDAKKIASNEDHVTFLAEVDGKVVGEASLHKDGEFSLVVHRNYRTLGIGTLLVKTLIEEAKKSGLSTVKFYTLPENTPMIKIGRKLGFKMRFYEDEVYGEMRL | not failed |
| KAKAAFFDIDGTLYREGLISEVFKKLIKYEIIDEEKWYKEVRPEFEKWDNRKGDYDDYLLKMTEIYVDALNGLSKSQVEFIASQVVNQKGERVYTYTRDRIKWHKERGHKIITISGSPIELVRNMAEKYGFDDYRGAEYLLDENDVYTGEVIPMWDSKSKERAVHELEAKYNIDLGESYAYGDTSGDLTMLKMVGNPVCINPTKELVKEILSDEEVKNKIRIIVERK | not failed |
| MSIPKEQYNFNKLQKRLRRNVGQAIADFNMIEDGDKIMVCLSGGKDSYTLLSILMNLQKSAPIQFSLIAVNLDQKQPGFPEHILPEYLEQLGVEYKIVEENTYGIVKEIIPEGKTTCSLCSRLRRGILYRTATEVGATKIALGHHRDDILETLFLNMFYGGKLKGMPPKLMSDDGKHIVIRPLAYAREKDIERFAQAKNFPIIPCNLCGSQPNLQRQVIKEMLRDWDKRYPGRIETMFRATQNIVPSHLCDTQLFDFANIKQGDEIINGGDLAFDKDDIPTSPILSDDEDERPDFSQARLDVVEVK | not failed |
| MATKIDKEACRAAYNLVRDDGSAVIWVTFRYDGATIVPGDQGADYQHFIQQCTDDVRLFAFVRFTTGDAMSKRSKFALITWIGEDVSGLQRAKTGTDKTLVKEVVQNFAKEFVISDRKELEEDFIRSELKKAGGANYDAQSE | not failed |
| MLTNPTYGLTLHAQGPVPAEVFPLPTPPRSSRVPASTNRGGPPPQRGGPRPSGRPPRPPVRRKKPRWAMRAVTALSVVVLASAGIGHAVLSSLDSDISRFDAFKDMKNRPRAGDGMNVLMVGTDGRDEITEEERRKYRLGGAPCHCTDTIMIVHISEDRERASVVSLPRDSYAETPGHTDRTTGEHHKGHPIKLNAAYAEGGPQLTIRTVENMTRVKIDHYLEVDFTSFMKTVDVLGGVRICTVQPLKDSYTGLDLPAGSHTLMGGQALQYVRARHLDGASDLSRMKRQQRFLAALIDRATSSGILLNPLKFRDVTRAVLGSVRADQGFGTDELLTLGRAMRNFSPSSSEFTTVPIGQMGYAVKGVGSTLKWDPAKSERLFDALREDEPLAAPKPKGPAPVRVPVDPKQIRVQVENGTRTSGLGKRVDDALAATGFRTTRAPRNAEDRAVGRTVVAYDPRWDQSAKSLAAALPGSELKPVKGQGATLKVIAGADFEKVAKVRPADPPQESGTVVRGDEVVCGKE | failed |
| MSLEGLSINFATVRQGGNFGAIVDACLAHGITAISPWREQVHGVGLAEAARIVEQNGLRLSGHCRGGFFPAIDADGRRRAIEDNKRAVDEAAAMKADCLVLVVGGLPAGSRDLKGARQMVEDGMAKLLPYARAAGVPLAIEPLHPFYAAERACFNTLKQSLDLCDRLGAGTGVAIDVYHVWWDPELEEQVARAGRNGQILAHHICDWLVPTTDPLNDRGMMGDGVIDLKAFRAMIEAAGFHGPQEVEIFSHRWQARPMDEVLATVVERFKTVC | failed |
| MTAEIDIQNSIRLELSRHGHYVFRANVGKVRMPNGRIFDTGLPKGFPDLFGFRGTDGKMFFIEVKNEIGKLRQEQKNFQQAMEITPAIGVARSAEEALKIVEGLEHHHHHH | failed |
| EVTGSVSLEALEEVQVGENLEVGVGIDELVNAEAFAYDFTLNYDENAFEYVEAISDDGVFVNAKKIEDGKVRVLVSSLTGEPLPAKEVLAKVVLRAEAKAEGSNLSVTNSSVGDGEGLVHEIAGTEKTVNIIE | not failed |
| MNLLVIGGHERMEKDYMVMAKKKGYKTKVYTTMSSKLNNSIGRPDAVVILTSTVSHKMSRTVESQAKKQDILIVRHKNSSKVAFNECLDMVDECLGNCSKCKLKDKQKQKNILEHHHHHH | failed |
| MFCVSLILQTLKQPNVHRQVLAIALPMVLSNITVPLLGLVDAAVIGHLEHAWYLGGVALGSTMISVTFWLLGFLRMSTTGLTAQAHGAQNSQQLARVLLQGSVIALGLAALFLLFHRPVAELIFHFSDASSEVKTYAEAYFYIRAWSAPAALLNFVLLGWLLGTQNARAPMWMVIITNLTNIVLDLLLVLGLGLKVEGAAIASVIADYAGLLFGLLCVGRYWRQHQLPAPFSFIPSLTKELSRLVALNRDIFLRSLCLQAVFSFMTFQGAALGDDIVAANAVLMSFLMMISYGMDGFAYAMEAMVGKAIGAKDDRQLRTAMISSTFWATMICLLLSLIFLGFGSDLIQMITNIPSVQATAEHYLPWLVAMPLIAVWCFLLDGVFIGATKGKEMRNSMAVSAVAFFAIYGFMTHYGNHALWLAMLSFMALRGFTLGATFYTQWRAGTFLPARFSI | failed |
| MISTFALFWALCIVCIINMARYYSSLRVLLMILRDCDPLLYQYVDGGGFFTSHGQPSKQIRLVGYIYAQRYLDHHDPEFIRRCERVRGQFLLTTALCGLIVISLIAMMMWY | failed |
| MMDVDHKTNLTLRKYFYTLKSMKFTSITYTLSAVLLLGFSIPLVFAQTPDSGLSADCQMPIPPNLNSVDHFLGMGHFQQDCKKDLSAAVAAFSQAIKLNPQAEEPYYHRANSYAAMGNYQAAVTDYTEVIRQNTGRLGFSTGAYWHRARAYEKLGEKQKAISDLTQLIGNNSSLNAEEYLFRANLYKELGNKESAIADYKIAEKLLQQYADGVFHTGMMDTRYEQMLDQVRNELSSMGVAVTVPKTTTGNILRTIAKTEVERALNLARLQSQHPTVKNFDAQLQDLYKQLANTQPQVESGVVKNLIANAAYEKIDDLKIERSQLLTKYTLDSPIIGVIDSQTSELESLIHRNKF | failed |
| MTAQIRLAEPADLNDDTLRARAVAAARGDQRFDVLITGGTLVDVVTGELRPADIGIVGALIASVHEPASRRDAAQVIDAGGAYVSPGLIDTHMHIESSMITPAAYAAAVVARGVTTIVWDPHEFGNVHGVDGVRWAAKAIENLPLRAILLAPSCVPSAPGLERGGADFDAAILADLLSWPEIGGIAEIMNMRGVIERDPRMSGIVQAGLAAEKLVCGHARGLKNADLNAFMAAGVSSDHELVSGEDLMAKLRAGLTIELRGSHDHLLPEFVAALNTLGHLPQTVTLCTDDVFPDDLLQGGGLDDVVRRLVRYGLKPEWALRAATLNAAQRLGRSDLGLIAAGRRADIVVFEDLNGFSARHVLASGRAVAEGGRMLVDIPTCDTTVLKGSMKLPLRMANDFLVKSQGAKVRLATIDRPRFTQWGETEADVKDGFVVPPEGATMISVTHRHGMAEPTTKTGFLTGWGRWNGAFATTVSHDSHNLTVFGGNAGDMALAANAVIGTGGGMAVASEGKVTAILPLPLSGLVSDAPLEEVARAFEDLREAVGKVVEWQPPYLVFKACFGATLACNIGPHQTDMGIADVLTGKVMESPVIEVLG | failed |
| LNKEGEVERLLGINMDMTEVKQLNEALFQEKERLHITLDSIGEAVVCIDMAMKITFMNPVAEKMSGWTQEEALGVPLLTVLHITFGDNGPLMENIYSADTSRSAIEQDVVLHCRSGGSYDVHYSITPLSTLD | failed |
